The supplement of paper PMC7125110
± gives the standard error. For some assays here: Fewer inactive variants are shown than the library holds.

B1: glmS ribozyme (parent)
chain: AUAAAAGCGCCAGAACUACAGAAAUGUAGUUGACGAGGAGGAGGUUUAUCGAAUUUUCGGCGGAUGCCUCCAAA

Legend:
Conditions in all cases: with glucosamine-6-phosphate
[1] = variants of: B1; assay: kcat; higher = faster cleavage; RNA array
How it was run: (§1)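 Tiles of sequenced MiSeq chips were imaged over ~14 h at 37 °C. On them, barcoded ribozyme variants had been transcribed in situ by E. coli RNA polymerase and were tracked via a hybridised Cy3 probe while glucosamine-6-phosphate (40 μM to 10 mM) in HEPES/KCl/Mg(OAc)2 buffer flowed in. Per-tile medians, normalised to baseline and to non-cleaving reference variants, were fit to one- or two-exponential decays for kobs, and weighted Michaelis–Menten fits gave kcat and KM.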

[2] = variants of: B1; assay: KM; higher = weaker cofactor use; RNA array
How it was run: as §1

[3] = variants of: B1; assay: self-cleavage kobs at 640 uM GlcN6P; higher = faster cleavage; RNA array
How it was run: as §1

[4] = variants of: B1; assay: self-cleavage kobs at 2500 uM GlcN6P; higher = faster cleavage; RNA array
How it was run: as §1

[5] = variants of: B1; assay: self-cleavage kobs at 10000 uM GlcN6P; higher = faster cleavage; RNA array
How it was run: as §1

[6] = variants of: B1; assay: self-cleavage kobs at 40 uM GlcN6P; higher = faster cleavage; RNA array
How it was run: as §1

[7] = variants of: B1; assay: self-cleavage kobs at 160 uM GlcN6P; higher = faster cleavage; RNA array
How it was run: as §1

Variant | kcat [1] | KM [2] | self-cleavage kobs at 640 uM GlcN6P [3] | self-cleavage kobs at 2500 uM GlcN6P [4] | self-cleavage kobs at 10000 uM GlcN6P [5] | self-cleavage kobs at 40 uM GlcN6P [6] | self-cleavage kobs at 160 uM GlcN6P [7]
AUAAACGCGCCAGAACUACAGAAAUGUAGUUGACGAGGAGGAGGUUUAUCGAGUUUUCGGCGGAUGCCUCCAAA [A6C A53G] | 0.000117 ± 1e-05 s⁻¹ | 3110 ± 770 µM | 3.04e-05 ± 1.3e-05 s⁻¹ | 4.95e-05 ± 7.6e-06 s⁻¹ | 8.97e-05 ± 7.3e-06 s⁻¹ | – | –
AUAAAAGCGCCAGAACUACAGAAAUGUAGUUAACGAGGAGGAGGUUUAUCGAAUUUUAGGCGGAUGCUUCCAAA [G32A C58A C68U] | 0.000878 ± 0.00034 s⁻¹ | – | 8.56e-05 ± 1.4e-05 s⁻¹ | 0.000172 ± 7.4e-05 s⁻¹ | 0.000572 ± 0.00012 s⁻¹ | – | –
AUAAAAGCGCCAGAACUACAGAAAUGUAGUUGACGAGGAGGAGGUUUAUCGUAUGUUCGGCGGAUGCCUCCAAA [A52U U55G] | 0.000246 ± 4.9e-05 s⁻¹ | 2150 ± 980 µM | 7.12e-05 ± 1.2e-05 s⁻¹ | 0.000109 ± 1.5e-05 s⁻¹ | 0.000221 ± 2.4e-05 s⁻¹ | – | –
AUAAAAGCGCCAGAAAUACAGAAAUGUAGUUGACGAGUAGGAGGUUUAUCGAAUUUUCGGCGGAUGCCUCCAAA [C16A G38U] | < 1e-05 s⁻¹ | – | – | < 1e-05 s⁻¹ | – | – | –
AUAAAAGCGCCAGCACUACAGAAAUGUAGUGGACGAGGAGGAGGUUUAUCGAAUUUUCGGCGGAUGCCUCCAAA [A14C U31G] | 0.0249 ± 0.0019 s⁻¹ | 2550 ± 250 µM | 0.00494 ± 0.00094 s⁻¹ | 0.0154 ± 0.0047 s⁻¹ | 0.0194 ± 0.0031 s⁻¹ | 0.000384 ± 5.3e-05 s⁻¹ | 0.00145 ± 0.00024 s⁻¹
AUAAAAGCGCCAGAACUACAGAAAUGUAGAUGACGAGGAGGAGGUUUAUCGAAUUUUUGGCGGAUGCCUCCAAA [U30A C58U] | 1.78e-05 ± 3.6e-06 s⁻¹ | – | – | – | – | – | –
AUAAAAGCGCCAAAACUACAUAAAUGUAGUUGACGAUGAGGAGGUUUAUCGAAUUUUCGGCGGAUGCCUUCAAA [G13A G21U G37U C70U] | < 1e-05 s⁻¹ | – | – | < 1e-05 s⁻¹ | – | – | –
AUAAAAGCGCCAGAACUACAGAAAUGUAGUUGACGAGGAGGAGGUUUAUCGCAUGUUCGGCGGAUGCCUCCAAA [A52C U55G] | 5.71e-05 ± 5.1e-06 s⁻¹ | – | – | – | – | < 1e-05 s⁻¹ | –
AUAAAAGCGCCAGAACUACAGAAAUGUAGUUGACGAGGAGGAGGUUUAUCGAAUUUUCGGCGGAUCCCGCCAAA [G66C U69G] | 5.5e-05 ± 1.9e-05 s⁻¹ | – | 8.02e-05 ± 1.2e-05 s⁻¹ | 6.24e-05 ± 1.2e-05 s⁻¹ | – | – | 4.18e-05 ± 1.2e-05 s⁻¹
AUAAAAGCGCCUGAACUACAGAAAUGUAGUUGACGAGGAGGAGGUAUAUCGAAUUUUCGGCGGAUGCCUCCAAA [A12U U46A] | 0.00538 ± 0.00031 s⁻¹ | 1720 ± 140 µM | 0.00161 ± 0.00033 s⁻¹ | 0.00326 ± 0.0006 s⁻¹ | 0.0045 ± 0.00062 s⁻¹ | 0.000119 ± 1.5e-05 s⁻¹ | –
